Results: the MegaScale stability set (Tsuboyama et al. 2023)

B1: HHH_rd1_0493 (parent)
chain: RDEDEKEKIKEALKRGNEDKAKEIAKRANVSPEEYERLRKEAE

Variants of: B1
Assay: folding stability dG (cDNA display proteolysis); higher = more stable
Settings: PBS, room temperature

Folding stability dG [kcal/mol], by site and new letter:
Y35: A 0.298 | W 2.58 | E 0.245 | N -0.057 | V 1.59 | C 0.708 | G -0.05 | R 0.281 | F 3.53 | I 1.39 | L 2.26 | M 2.29 | D 0.022 | S 0.291 | K 0.009 | Q 0.44 | H 0.142 | T 0.361
V30: A 0.849 | E 0.435 | H 0.486 | K 0.917 | T 1.84 | N 0.389 | S 0.63 | D 0.32 | W 1.73 | G 0.389 | C 1.69 | I 3.41 | R 0.486 | Y 1.84 | L 3.09 | F 2.3 | M 2.89 | Q 0.766 | P 0.301
K26: E 2.83 | D 2.71 | M 2.91 | T 2.79 | S 2.75 | V 2.73 | A 3.03 | G 2.31 | I 2.91 | Q 2.99 | N 2.64 | W 2.01 | F 2.47 | H 2.74 | Y 2.35 | R 3.1 | P 0.553 | L 3.05
A28: P 0.576 | Q 2.23 | T 2.25 | G 2.32 | W 2.25 | D 1.36 | L 3.25 | K 1.82 | N 2.9 | E 1.96 | S 2.51 | I 2.98 | F 2.91 | Y 3.02 | V 2.32 | R 1.84 | H 2.83 | C 2.78 | M 2.64
K40: F 2.8 | V 3.01 | Q 3.26 | P 0.577 | R 3.33 | A 3.15 | S 2.9 | E 2.98 | G 2.62 | M 3.2 | D 2.63 | I 3.16 | Y 2.89 | W 3.23 | T 2.8 | H 3.01 | L 3.21 | N 2.72
E33: G 2.25 | W 2.06 | C 2.29 | R 1.99 | L 2.27 | A 2.69 | K 2.04 | I 2.19 | V 2.22 | Y 1.92 | H 2.03 | M 2.33 | F 1.96 | D 2.64 | N 2.07 | S 2.43 | Q 2.58 | P 1.57 | T 2.33
R39: T 1.89 | S 2.1 | H 1.8 | Y 1.87 | C 1.52 | G 1.16 | N 1.18 | F 1.95 | M 2.1 | L 2.17 | W 2.02 | E 1.77 | D 0.392 | I 2.09 | Q 2.2 | K 2.99 | A 2.37 | P 0.097 | V 2.65
E34: V 1.81 | C 1.85 | K -0.215 | L 1.56 | I 1.79 | Y 0.926 | A 1.69 | H 0.903 | R -0.261 | D 2.42 | S 1.14 | N 0.916 | M 1.72 | G 1.06 | W 1.1 | T 1.51 | F 0.766 | Q 1.68
N29: I 1.23 | W 1.51 | D 2.39 | K 2.74 | E 2.29 | Y 1.9 | H 2.67 | Q 2.62 | A 2.34 | V 1.41 | S 2.42 | M 2.51 | P 0.97 | G 3.3 | F 2.29 | T 1.58 | R 2.55 | C 1.83 | L 2.22
A42: K 1.03 | S 2.37 | I 2.87 | H 1.55 | E 1.25 | L 2.54 | F 2.29 | T 2.31 | N 1.81 | M 2.51 | D 0.965 | Q 1.88 | R 1.21 | P 0.795 | G 1.62
P32: S 2.67 | F 2.76 | W 2.92 | C 2.07 | Y 2.7 | A 3.03 | V 2.74 | G 2.37 | L 2.83 | Q 2.8 | T 2.61 | D 3.02 | H 2.7 | E 2.85 | I 2.77 | R 2.73 | K 2.65 | M 2.79 | N 2.63
S31: K 2.07 | Y 1.3 | V 1.66 | Q 2.19 | I 1.44 | R 1.87 | P 2.65 | F 1.4 | W 1.27 | G 2.94 | L 2.21 | D 2.6 | N 2.39 | H 1.95 | M 2.11 | T 3.03 | E 2.17 | A 2.45 | C 1.74
E36: N 2.19 | L 2.24 | P 0.261 | A 2.31 | M 2.24 | Y 1.52 | D 2.7 | W 1.68 | H 1.75 | K 1.49 | V 1.5 | Q 2.11 | S 1.75 | T 1.7 | R 1.67 | G 1.13 | F 1.6 | I 1.88 | C 2.86
A25: S 1.74 | Q 2.15 | M 1.88 | P 0.533 | C 1.54 | L 0.818 | F 0.695 | K 0.845 | D 0.442 | I 0.742 | Y 0.541 | W -0.051 | H 0.547 | N 0.52 | T 1.01 | G 1.3 | E 0.618 | V 1.37 | R 1.16
R27: S 2.68 | Y 2.21 | N 2.83 | H 2.61 | Q 2.83 | I 2.65 | M 2.61 | A 3.04 | L 2.82 | F 2.01 | K 2.93 | V 2.42 | D 2.26 | C 2 | E 2.71 | G 2.36 | W 2 | T 2.51 | P 0.689
I24: Y 1.73
R37: G 1.77 | M 2.49 | H 2.12 | Q 2.63 | D 2.02 | F 2.15 | E 2.4 | T 2.22 | L 2.42 | P -0.529 | W 2.16 | S 2.27 | I 2.44 | N 2.35 | Y 2.05 | K 2.68 | V 2.24 | A 2.51
E41: Q 2.77 | R 2.07 | V 2.15 | D 2.35 | L 2.63 | A 2.55 | T 1.97 | M 2.58 | G 1.59 | S 2.05 | W 2.38 | C 1.88 | K 1.99 | Y 1.63 | H 1.7 | N 1.77 | I 2.38 | F 1.84 | P 0.8
L38: R 0.571 | D 0.129 | V 1.23 | A 0.829 | H 0.352 | F 1.58 | W 1.78 | G 0.162 | P -0.019 | T 0.593 | I 2.76 | E 0.322 | N 0.332 | C 1.29 | M 2.26 | K 0.318 | Y 1.85 | S 0.378 | Q 0.492
